# Reference: US20210388087A1 (Chugai, published 2021)
# T1: Human CD3eg linker (human)
# T1 construct: Single chain: epsilon and gamma subunits of human CD3 joined by a 29-mer linker, Flag-tag at the C-terminus; also called recombinant human CD3
# T1 chain: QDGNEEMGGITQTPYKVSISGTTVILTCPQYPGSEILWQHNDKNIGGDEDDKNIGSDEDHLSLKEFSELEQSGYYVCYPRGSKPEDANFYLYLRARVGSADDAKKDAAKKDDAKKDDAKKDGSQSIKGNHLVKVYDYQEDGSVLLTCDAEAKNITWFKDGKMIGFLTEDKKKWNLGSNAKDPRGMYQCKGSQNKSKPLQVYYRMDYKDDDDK
# Target: T1, Human CD3eg linker
# Experiment: Biacore SPR, vs template H183/L072
row,Binder,fold change of affinity [fold]
1,"H183/L072 VH K52N (antibody, name in Kabat numbering, V domains shown) VH: QVQLVESGGGLVQPGRSLRLSCAASGFTFSNAWMHWVRQAPGKGLEWVAQINDKGNAYAAYYAPSVKGRFTISRDDSKNSIYLQMNSLKTEDTAVYYCHYVHYASASTVLPAFGVDAWGQGTTVTVSS VL: DIVMTQSPLSLPVTPGEPASISCQASQELVHMNRNTYLHWYQQKPGQAPRLLIYKVSNRFPGVPDRFSGSGSGTDFTLKISRVEAEDVGVYYCAQGTSVPFTFGQGTKLEIK",0
2,"H183/L072 VH K52P (antibody, name in Kabat numbering, V domains shown) VH: QVQLVESGGGLVQPGRSLRLSCAASGFTFSNAWMHWVRQAPGKGLEWVAQIPDKGNAYAAYYAPSVKGRFTISRDDSKNSIYLQMNSLKTEDTAVYYCHYVHYASASTVLPAFGVDAWGQGTTVTVSS VL: DIVMTQSPLSLPVTPGEPASISCQASQELVHMNRNTYLHWYQQKPGQAPRLLIYKVSNRFPGVPDRFSGSGSGTDFTLKISRVEAEDVGVYYCAQGTSVPFTFGQGTKLEIK",0
3,"H183/L072 VH K52Q (antibody, name in Kabat numbering, V domains shown) VH: QVQLVESGGGLVQPGRSLRLSCAASGFTFSNAWMHWVRQAPGKGLEWVAQIQDKGNAYAAYYAPSVKGRFTISRDDSKNSIYLQMNSLKTEDTAVYYCHYVHYASASTVLPAFGVDAWGQGTTVTVSS VL: DIVMTQSPLSLPVTPGEPASISCQASQELVHMNRNTYLHWYQQKPGQAPRLLIYKVSNRFPGVPDRFSGSGSGTDFTLKISRVEAEDVGVYYCAQGTSVPFTFGQGTKLEIK",0.3
4,"H183/L072 VH K52R (antibody, name in Kabat numbering, V domains shown) VH: QVQLVESGGGLVQPGRSLRLSCAASGFTFSNAWMHWVRQAPGKGLEWVAQIRDKGNAYAAYYAPSVKGRFTISRDDSKNSIYLQMNSLKTEDTAVYYCHYVHYASASTVLPAFGVDAWGQGTTVTVSS VL: DIVMTQSPLSLPVTPGEPASISCQASQELVHMNRNTYLHWYQQKPGQAPRLLIYKVSNRFPGVPDRFSGSGSGTDFTLKISRVEAEDVGVYYCAQGTSVPFTFGQGTKLEIK",0.8
5,"H183/L072 VH K52S (antibody, name in Kabat numbering, V domains shown) VH: QVQLVESGGGLVQPGRSLRLSCAASGFTFSNAWMHWVRQAPGKGLEWVAQISDKGNAYAAYYAPSVKGRFTISRDDSKNSIYLQMNSLKTEDTAVYYCHYVHYASASTVLPAFGVDAWGQGTTVTVSS VL: DIVMTQSPLSLPVTPGEPASISCQASQELVHMNRNTYLHWYQQKPGQAPRLLIYKVSNRFPGVPDRFSGSGSGTDFTLKISRVEAEDVGVYYCAQGTSVPFTFGQGTKLEIK",0
6,"H183/L072 VH K52T (antibody, name in Kabat numbering, V domains shown) VH: QVQLVESGGGLVQPGRSLRLSCAASGFTFSNAWMHWVRQAPGKGLEWVAQITDKGNAYAAYYAPSVKGRFTISRDDSKNSIYLQMNSLKTEDTAVYYCHYVHYASASTVLPAFGVDAWGQGTTVTVSS VL: DIVMTQSPLSLPVTPGEPASISCQASQELVHMNRNTYLHWYQQKPGQAPRLLIYKVSNRFPGVPDRFSGSGSGTDFTLKISRVEAEDVGVYYCAQGTSVPFTFGQGTKLEIK",0.5
7,"H183/L072 VH K52V (antibody, name in Kabat numbering, V domains shown) VH: QVQLVESGGGLVQPGRSLRLSCAASGFTFSNAWMHWVRQAPGKGLEWVAQIVDKGNAYAAYYAPSVKGRFTISRDDSKNSIYLQMNSLKTEDTAVYYCHYVHYASASTVLPAFGVDAWGQGTTVTVSS VL: DIVMTQSPLSLPVTPGEPASISCQASQELVHMNRNTYLHWYQQKPGQAPRLLIYKVSNRFPGVPDRFSGSGSGTDFTLKISRVEAEDVGVYYCAQGTSVPFTFGQGTKLEIK",0
8,"H183/L072 VH K52W (antibody, name in Kabat numbering, V domains shown) VH: QVQLVESGGGLVQPGRSLRLSCAASGFTFSNAWMHWVRQAPGKGLEWVAQIWDKGNAYAAYYAPSVKGRFTISRDDSKNSIYLQMNSLKTEDTAVYYCHYVHYASASTVLPAFGVDAWGQGTTVTVSS VL: DIVMTQSPLSLPVTPGEPASISCQASQELVHMNRNTYLHWYQQKPGQAPRLLIYKVSNRFPGVPDRFSGSGSGTDFTLKISRVEAEDVGVYYCAQGTSVPFTFGQGTKLEIK",0
9,"H183/L072 VH K52Y (antibody, name in Kabat numbering, V domains shown) VH: QVQLVESGGGLVQPGRSLRLSCAASGFTFSNAWMHWVRQAPGKGLEWVAQIYDKGNAYAAYYAPSVKGRFTISRDDSKNSIYLQMNSLKTEDTAVYYCHYVHYASASTVLPAFGVDAWGQGTTVTVSS VL: DIVMTQSPLSLPVTPGEPASISCQASQELVHMNRNTYLHWYQQKPGQAPRLLIYKVSNRFPGVPDRFSGSGSGTDFTLKISRVEAEDVGVYYCAQGTSVPFTFGQGTKLEIK",0
10,"H183/L072 VH K52bA (antibody, name in Kabat numbering, V domains shown) VH: QVQLVESGGGLVQPGRSLRLSCAASGFTFSNAWMHWVRQAPGKGLEWVAQIKDAGNAYAAYYAPSVKGRFTISRDDSKNSIYLQMNSLKTEDTAVYYCHYVHYASASTVLPAFGVDAWGQGTTVTVSS VL: DIVMTQSPLSLPVTPGEPASISCQASQELVHMNRNTYLHWYQQKPGQAPRLLIYKVSNRFPGVPDRFSGSGSGTDFTLKISRVEAEDVGVYYCAQGTSVPFTFGQGTKLEIK",0.7
11,"H183/L072 VH K52bD (antibody, name in Kabat numbering, V domains shown) VH: QVQLVESGGGLVQPGRSLRLSCAASGFTFSNAWMHWVRQAPGKGLEWVAQIKDDGNAYAAYYAPSVKGRFTISRDDSKNSIYLQMNSLKTEDTAVYYCHYVHYASASTVLPAFGVDAWGQGTTVTVSS VL: DIVMTQSPLSLPVTPGEPASISCQASQELVHMNRNTYLHWYQQKPGQAPRLLIYKVSNRFPGVPDRFSGSGSGTDFTLKISRVEAEDVGVYYCAQGTSVPFTFGQGTKLEIK",0
12,"H183/L072 VH K52bE (antibody, name in Kabat numbering, V domains shown) VH: QVQLVESGGGLVQPGRSLRLSCAASGFTFSNAWMHWVRQAPGKGLEWVAQIKDEGNAYAAYYAPSVKGRFTISRDDSKNSIYLQMNSLKTEDTAVYYCHYVHYASASTVLPAFGVDAWGQGTTVTVSS VL: DIVMTQSPLSLPVTPGEPASISCQASQELVHMNRNTYLHWYQQKPGQAPRLLIYKVSNRFPGVPDRFSGSGSGTDFTLKISRVEAEDVGVYYCAQGTSVPFTFGQGTKLEIK",0.5
13,"H183/L072 VH K52bF (antibody, name in Kabat numbering, V domains shown) VH: QVQLVESGGGLVQPGRSLRLSCAASGFTFSNAWMHWVRQAPGKGLEWVAQIKDFGNAYAAYYAPSVKGRFTISRDDSKNSIYLQMNSLKTEDTAVYYCHYVHYASASTVLPAFGVDAWGQGTTVTVSS VL: DIVMTQSPLSLPVTPGEPASISCQASQELVHMNRNTYLHWYQQKPGQAPRLLIYKVSNRFPGVPDRFSGSGSGTDFTLKISRVEAEDVGVYYCAQGTSVPFTFGQGTKLEIK",0.4
14,"H183/L072 VH K52bG (antibody, name in Kabat numbering, V domains shown) VH: QVQLVESGGGLVQPGRSLRLSCAASGFTFSNAWMHWVRQAPGKGLEWVAQIKDGGNAYAAYYAPSVKGRFTISRDDSKNSIYLQMNSLKTEDTAVYYCHYVHYASASTVLPAFGVDAWGQGTTVTVSS VL: DIVMTQSPLSLPVTPGEPASISCQASQELVHMNRNTYLHWYQQKPGQAPRLLIYKVSNRFPGVPDRFSGSGSGTDFTLKISRVEAEDVGVYYCAQGTSVPFTFGQGTKLEIK",0.8
15,"H183/L072 VH K52bH (antibody, name in Kabat numbering, V domains shown) VH: QVQLVESGGGLVQPGRSLRLSCAASGFTFSNAWMHWVRQAPGKGLEWVAQIKDHGNAYAAYYAPSVKGRFTISRDDSKNSIYLQMNSLKTEDTAVYYCHYVHYASASTVLPAFGVDAWGQGTTVTVSS VL: DIVMTQSPLSLPVTPGEPASISCQASQELVHMNRNTYLHWYQQKPGQAPRLLIYKVSNRFPGVPDRFSGSGSGTDFTLKISRVEAEDVGVYYCAQGTSVPFTFGQGTKLEIK",0.7
16,"H183/L072 VH K52bI (antibody, name in Kabat numbering, V domains shown) VH: QVQLVESGGGLVQPGRSLRLSCAASGFTFSNAWMHWVRQAPGKGLEWVAQIKDIGNAYAAYYAPSVKGRFTISRDDSKNSIYLQMNSLKTEDTAVYYCHYVHYASASTVLPAFGVDAWGQGTTVTVSS VL: DIVMTQSPLSLPVTPGEPASISCQASQELVHMNRNTYLHWYQQKPGQAPRLLIYKVSNRFPGVPDRFSGSGSGTDFTLKISRVEAEDVGVYYCAQGTSVPFTFGQGTKLEIK",0.8
17,"H183/L072 VH K52bL (antibody, name in Kabat numbering, V domains shown) VH: QVQLVESGGGLVQPGRSLRLSCAASGFTFSNAWMHWVRQAPGKGLEWVAQIKDLGNAYAAYYAPSVKGRFTISRDDSKNSIYLQMNSLKTEDTAVYYCHYVHYASASTVLPAFGVDAWGQGTTVTVSS VL: DIVMTQSPLSLPVTPGEPASISCQASQELVHMNRNTYLHWYQQKPGQAPRLLIYKVSNRFPGVPDRFSGSGSGTDFTLKISRVEAEDVGVYYCAQGTSVPFTFGQGTKLEIK",0.6
18,"H183/L072 VH K52bM (antibody, name in Kabat numbering, V domains shown) VH: QVQLVESGGGLVQPGRSLRLSCAASGFTFSNAWMHWVRQAPGKGLEWVAQIKDMGNAYAAYYAPSVKGRFTISRDDSKNSIYLQMNSLKTEDTAVYYCHYVHYASASTVLPAFGVDAWGQGTTVTVSS VL: DIVMTQSPLSLPVTPGEPASISCQASQELVHMNRNTYLHWYQQKPGQAPRLLIYKVSNRFPGVPDRFSGSGSGTDFTLKISRVEAEDVGVYYCAQGTSVPFTFGQGTKLEIK",0.5
19,"H183/L072 VH K52bN (antibody, name in Kabat numbering, V domains shown) VH: QVQLVESGGGLVQPGRSLRLSCAASGFTFSNAWMHWVRQAPGKGLEWVAQIKDNGNAYAAYYAPSVKGRFTISRDDSKNSIYLQMNSLKTEDTAVYYCHYVHYASASTVLPAFGVDAWGQGTTVTVSS VL: DIVMTQSPLSLPVTPGEPASISCQASQELVHMNRNTYLHWYQQKPGQAPRLLIYKVSNRFPGVPDRFSGSGSGTDFTLKISRVEAEDVGVYYCAQGTSVPFTFGQGTKLEIK",0.5
20,"H183/L072 VH K52bP (antibody, name in Kabat numbering, V domains shown) VH: QVQLVESGGGLVQPGRSLRLSCAASGFTFSNAWMHWVRQAPGKGLEWVAQIKDPGNAYAAYYAPSVKGRFTISRDDSKNSIYLQMNSLKTEDTAVYYCHYVHYASASTVLPAFGVDAWGQGTTVTVSS VL: DIVMTQSPLSLPVTPGEPASISCQASQELVHMNRNTYLHWYQQKPGQAPRLLIYKVSNRFPGVPDRFSGSGSGTDFTLKISRVEAEDVGVYYCAQGTSVPFTFGQGTKLEIK",0.5
